Reference: patent US20250121104A1 (FUSION PHARMACEUTICALS, published 2025)

Legend:
mouse cMET (recombinant) = mouse cMET (recombinant) (mouse, UniProt P16056 25-929, limits assumed); assay: ELISA, antigen coated at 1 µg/mL, antibody titrated from 10 µg/mL
Description: (§1) Specificity for EGFR and cMET species paralogs and closely related family members was determined by ELISA. Briefly, antigen solutions were prepared in PBS at 1 μg/mL and 50 microliters was coated onto half area ELISA assay plates. Plates were washed and blocked with 1% BSA in PBS containing 0.005% Tween-20 (PBS-T) for one hour at room temperature. […] Wells were incubated with 50 microliters of the indicated primary antibodies diluted in PBS-T in a 1:3 dilution series, starting at 10 μg/mL and ending at 0.002 μg/mL, except for the HER4 binding mAb control, MAB1131, for which the series started at 1 μg/mL. The wells were washed 4 times in PBS-T, then 50 μl of goat anti-human Fab HRP-labeled secondary antibody, diluted 1:5000 in PBS-T, was added to each well and incubated for one hour at room temperature. […] 50 microliters of TMB stop solution was added to all wells and the absorbance was read at 450 nm on a SpectraMax M5 microplate reader. Data were analyzed in the SoftMax Pro 5 software and plotted using GraphPad Prism 7 graphing software.
(§2) To determine the species cross reactivity, ELISA assays were carried out as described above.

Semaphorin 3a = target: T1, Semaphorin 3a (UniProt Q14563 21-771, limits assumed); assay: as above
T1 sequence (looked up): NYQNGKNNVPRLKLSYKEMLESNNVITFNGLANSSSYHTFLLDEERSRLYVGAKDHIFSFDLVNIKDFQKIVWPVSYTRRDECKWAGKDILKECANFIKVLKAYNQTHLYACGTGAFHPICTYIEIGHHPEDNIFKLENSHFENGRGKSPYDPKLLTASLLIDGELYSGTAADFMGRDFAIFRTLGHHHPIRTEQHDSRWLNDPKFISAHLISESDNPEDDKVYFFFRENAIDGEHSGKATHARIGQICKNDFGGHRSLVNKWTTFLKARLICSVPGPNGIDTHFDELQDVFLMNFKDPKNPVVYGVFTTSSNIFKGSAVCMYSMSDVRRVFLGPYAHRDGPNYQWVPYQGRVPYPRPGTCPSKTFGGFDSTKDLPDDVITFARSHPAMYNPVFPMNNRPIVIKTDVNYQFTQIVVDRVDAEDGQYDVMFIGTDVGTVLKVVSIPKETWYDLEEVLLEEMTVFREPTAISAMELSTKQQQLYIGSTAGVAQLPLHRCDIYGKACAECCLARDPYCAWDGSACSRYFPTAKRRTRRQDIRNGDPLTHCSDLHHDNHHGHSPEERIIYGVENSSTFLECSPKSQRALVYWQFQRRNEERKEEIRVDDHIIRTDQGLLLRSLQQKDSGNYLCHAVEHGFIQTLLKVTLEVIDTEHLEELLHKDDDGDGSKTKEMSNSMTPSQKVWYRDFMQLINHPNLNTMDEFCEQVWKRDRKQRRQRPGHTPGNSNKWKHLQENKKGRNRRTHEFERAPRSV
Description: as §1, §2

[1] = target: T2, cynomolgus monkey cMET (recombinant, soluble monomeric) (cynomolgus monkey, UniProt A0M8R7 25-932 (Papio anubis entry)); assay: SPR (BIAcore T200), antibody captured on anti-human IgG, soluble monomeric antigen as analyte, 25 C, 1:1 fit
T2 construct: also called cyno cMET
Description: (§3) Mouse anti-human IgG was immobilized on a CM4 sensor chip with a final surface density of ˜2000 resonance units (RUs). A reference flow cell surface was also prepared on this sensor chip using identical immobilization protocol. Test and control article antibodies were prepared at 5-20 nM in instrument buffer (HBS-EP buffer; 0.01M HEPES, pH 7.4, 0.15M NaCl, 3 mM EDTA, and 0.005% P-20), along with 3-fold serial dilutions of purified EGFR (0.27-200 nM human, 0.4-900 nM cyno, and 4-1000 nM murine) or cMET proteins (0.27-66 nM human and 0.27-22 nM cyno) in instrument buffer. A sequential approach was utilized for kinetic measurements. Antibodies were first injected over the capture surface, at a flow rate of 10 μL/minute. Once the binding of the captured antibody stabilized, a single concentration of the analyte was injected over both capture and reference surfaces, at a flow rate of 75 μL/minute. The resulting binding response curves yielded the association phase data. Following the injection of analyte, the flow was then switched back to instrument buffer for 15 minutes to permit the collection of dissociation phase data, followed by a 1-minute pulse of 10 mM glycine, pH 1.5, to regenerate the antibody-captured surface on the chip. Binding responses against test and control article antibodies were recorded from duplicate injections of each concentration of analyte. In addition, several buffer injections were interspersed throughout the injection series. Select buffer injections were used along with the reference cell responses to correct the raw data sets for injection artifacts and/or nonspecific binding interactions, commonly referred to as “double referencing”. Corrected binding data were globally fit to a 1:1 binding model (Biacore T200 Evaluation software 2.0, GE Healthcare, Pittsburgh, PA).
(§4) Kinetic measurements to soluble monomeric forms of EGFR and cMET were performed using a BIACore instrument.

[2] = target: T3, human EGFR (recombinant, soluble monomeric) (human, UniProt P00533 25-645); assay: as above
T3 construct: also called EGFR antigen
Description: as §3, §4

[3] = target: T4, cynomolgus monkey EGFR (recombinant, soluble monomeric) (cynomolgus monkey, UniProt P55245 25-645 (rhesus entry)); assay: as above
T4 construct: also called cyno EGFR
Description: as §3, §4

mouse EGFR (recombinant) = target: T5, mouse EGFR (recombinant) (mouse, UniProt Q01279 25-647); assay: as above
T5 construct: also called murine EGFR
Description: as §3, §4

[4] = target: T6, human cMET (recombinant, soluble monomeric) (human, UniProt P08581 25-932); assay: as above
T6 construct: also called cMET antigen; His-tagged cMET antigen
Description: as §3, §4

T2 sequence (A0M8R7 25-932 S170N/I621T): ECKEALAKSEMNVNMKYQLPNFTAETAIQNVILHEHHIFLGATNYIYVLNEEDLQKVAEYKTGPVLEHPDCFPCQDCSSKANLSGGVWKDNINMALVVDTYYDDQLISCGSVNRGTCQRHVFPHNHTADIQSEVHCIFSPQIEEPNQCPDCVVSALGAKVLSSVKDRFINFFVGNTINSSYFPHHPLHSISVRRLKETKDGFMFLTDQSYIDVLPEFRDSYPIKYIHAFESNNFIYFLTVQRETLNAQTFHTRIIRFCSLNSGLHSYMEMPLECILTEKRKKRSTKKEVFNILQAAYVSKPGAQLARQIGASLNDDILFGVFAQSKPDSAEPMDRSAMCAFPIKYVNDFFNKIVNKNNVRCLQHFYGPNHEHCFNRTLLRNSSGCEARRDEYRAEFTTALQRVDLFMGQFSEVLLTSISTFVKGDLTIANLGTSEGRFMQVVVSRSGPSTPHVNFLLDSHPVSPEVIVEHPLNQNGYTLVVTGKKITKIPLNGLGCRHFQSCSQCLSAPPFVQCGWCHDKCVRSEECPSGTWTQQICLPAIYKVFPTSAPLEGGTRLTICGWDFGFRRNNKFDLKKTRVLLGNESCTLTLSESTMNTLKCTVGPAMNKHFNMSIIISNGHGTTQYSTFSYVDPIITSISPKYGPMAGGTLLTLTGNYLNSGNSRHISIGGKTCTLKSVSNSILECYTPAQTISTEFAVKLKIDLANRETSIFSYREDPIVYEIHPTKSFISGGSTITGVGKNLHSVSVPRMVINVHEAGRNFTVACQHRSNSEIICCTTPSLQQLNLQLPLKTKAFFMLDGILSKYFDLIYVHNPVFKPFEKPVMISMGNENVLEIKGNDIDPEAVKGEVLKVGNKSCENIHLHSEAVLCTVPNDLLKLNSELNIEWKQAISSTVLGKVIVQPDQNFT
T6 sequence (P08581 25-932): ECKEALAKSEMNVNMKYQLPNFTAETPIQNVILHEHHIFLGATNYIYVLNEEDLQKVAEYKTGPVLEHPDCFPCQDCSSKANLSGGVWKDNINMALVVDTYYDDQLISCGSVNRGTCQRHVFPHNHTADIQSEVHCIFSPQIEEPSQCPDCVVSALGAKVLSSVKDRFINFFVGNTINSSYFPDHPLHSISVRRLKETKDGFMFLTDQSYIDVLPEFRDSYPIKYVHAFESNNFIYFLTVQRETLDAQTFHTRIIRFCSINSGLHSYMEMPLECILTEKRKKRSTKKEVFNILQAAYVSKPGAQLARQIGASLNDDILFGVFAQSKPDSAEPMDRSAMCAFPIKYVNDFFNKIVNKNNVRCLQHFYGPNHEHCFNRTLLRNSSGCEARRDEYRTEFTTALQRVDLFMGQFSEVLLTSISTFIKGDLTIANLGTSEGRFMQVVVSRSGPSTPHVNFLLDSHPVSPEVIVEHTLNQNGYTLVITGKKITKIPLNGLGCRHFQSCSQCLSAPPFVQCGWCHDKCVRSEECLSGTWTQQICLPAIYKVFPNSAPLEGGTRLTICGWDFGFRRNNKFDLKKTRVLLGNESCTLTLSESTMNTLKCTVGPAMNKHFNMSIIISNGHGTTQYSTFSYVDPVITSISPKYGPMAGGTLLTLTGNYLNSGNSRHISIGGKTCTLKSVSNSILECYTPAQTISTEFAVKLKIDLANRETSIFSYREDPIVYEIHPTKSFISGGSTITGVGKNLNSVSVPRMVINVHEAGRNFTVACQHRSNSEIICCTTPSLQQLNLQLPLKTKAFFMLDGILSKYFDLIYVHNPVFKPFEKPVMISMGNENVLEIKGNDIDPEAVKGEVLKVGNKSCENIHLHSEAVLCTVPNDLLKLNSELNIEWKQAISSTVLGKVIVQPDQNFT
Sequence of mouse cMET (recombinant) (P16056 25-929 limits assumed): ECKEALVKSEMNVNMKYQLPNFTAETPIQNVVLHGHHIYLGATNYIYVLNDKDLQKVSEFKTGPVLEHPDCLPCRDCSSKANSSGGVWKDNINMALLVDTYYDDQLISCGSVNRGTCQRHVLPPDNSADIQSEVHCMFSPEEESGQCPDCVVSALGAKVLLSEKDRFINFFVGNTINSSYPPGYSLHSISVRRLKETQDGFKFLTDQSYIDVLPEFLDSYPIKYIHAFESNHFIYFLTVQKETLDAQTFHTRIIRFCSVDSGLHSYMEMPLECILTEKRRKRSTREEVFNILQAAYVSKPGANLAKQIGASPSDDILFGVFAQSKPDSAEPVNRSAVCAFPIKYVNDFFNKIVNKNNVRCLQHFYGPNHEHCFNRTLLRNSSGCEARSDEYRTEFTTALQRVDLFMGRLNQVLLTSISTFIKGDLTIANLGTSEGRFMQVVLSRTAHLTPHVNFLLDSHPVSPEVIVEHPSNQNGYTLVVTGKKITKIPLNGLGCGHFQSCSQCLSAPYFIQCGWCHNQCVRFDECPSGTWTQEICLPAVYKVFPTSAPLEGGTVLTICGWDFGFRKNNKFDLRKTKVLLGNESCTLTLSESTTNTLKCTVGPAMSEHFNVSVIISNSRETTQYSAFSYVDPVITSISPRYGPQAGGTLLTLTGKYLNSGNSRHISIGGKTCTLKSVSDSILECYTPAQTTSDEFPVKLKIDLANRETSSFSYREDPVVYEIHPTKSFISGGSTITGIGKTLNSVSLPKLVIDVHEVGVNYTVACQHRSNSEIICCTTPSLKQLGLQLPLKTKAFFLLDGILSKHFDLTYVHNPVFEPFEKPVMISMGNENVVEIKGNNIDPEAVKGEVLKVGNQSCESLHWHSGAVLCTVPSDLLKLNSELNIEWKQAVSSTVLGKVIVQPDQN

B1: RAA22/B09-57 DuetMab (bispecific antibody, V domains shown)
VH 1: QVQLVQSGAEVKKPGSSVKVSCKASGGTFSDNDFSWVRQAPGQGLEWMGAIVAVFRTETYAQKFQDRVKITADISTRTTYMELSSLRSEDTAVYYCARRLMSAISGPGAPLLMWGQGTLVTVSS
VL 1: QSALTQPRSVSGSPGQSVTISCTGTSSDVGGYNYVSWYQQHPGKAPKLMIYDVSKRPSGVPDRFSGSKSGNTASLTISGLQAEDEADYYCSSYTSSDTLEIFGGGTKLTVL
VH 2: QVQLVQSGAEVKKPGASVKVSCKASGYTFTDYYIHWVRQATGQGLEWMGWMNPNSGNTGYAQKFQGRVTMTRDTSISTAYMELSSLRSEDTAVYYCARGQGYTHSWGQGTMVTVSS
VL 2: DIQMTQSPSTLSASVGDRVTITCRASEGIYHWLAWYQQKPGKAPKLLIYKASSLASGVPSRFSGSGSGTEFTLTISSLQPDDFATYYCQQYSNYPPTFGGGTKLEIK
notes: RAA22 VH on Hole heavy chain (T366S, L368A, Y407V, Y349C) with lambda CL; cysteine insertion after S239; also called RAA22/B09 DuetMab; RAA22/B09 bispecific mAb
- binding result (mouse cMET (recombinant)): no binding (tested: 10 µg/mL)
- binding result (Semaphorin 3a): no binding (tested: 10 µg/mL)
- Kd [1]: 2.2 nM
- koff [1]: 0.00212 s⁻¹
- kon [1]: 974000 M⁻¹ s⁻¹
- Kd [2]: 45 nM
- koff [2]: 0.00201 s⁻¹
- kon [2]: 44700 M⁻¹ s⁻¹
- Kd [3]: 197 nM
- koff [3]: 0.00548 s⁻¹
- kon [3]: 27800 M⁻¹ s⁻¹
- Kd (mouse EGFR (recombinant)): 575 nM
- koff (mouse EGFR (recombinant)): 0.0206 s⁻¹
- kon (mouse EGFR (recombinant)): 35400 M⁻¹ s⁻¹
- Kd [4]: 2.2 nM
- koff [4]: 0.000986 s⁻¹
- kon [4]: 443000 M⁻¹ s⁻¹
